Reference: publication PMC3923783, “Competitive and Cooperative Interactions Mediate RNA Transfer from Herpesvirus Saimiri ORF57 to the Mammalian Export Adaptor ALYREF” (PLoS Pathogens, 2014)

B1: ORF57^8–120 (domain or fragment)
chain: GISSDDDFDSSDSSSDEEESDTSPQIMKSDVTMASPPSTPEPSPDVSASTSNLKRERQRSPITWEHQSPLSRVYRSPSPMRFGKRPRISSNSTSRSCKTSWADRVREAAAQRR
notes: Herpesvirus saimiri (HVS) ORF57 protein, residues 8-120; Construct of the NMR and fluorescence experiments; It may be the same construct as the hexa-histidine ORF57^8–120; also called ORF57 aa8–120; ORF57(aa8–120); source: E. coli BL21-RP, purified (gel filtration), as described previously [30]
B2: ALYREF fragment aa1–155 (ALYREF^1–155) (domain or fragment)
chain: not shown
notes: source: E. coli BL21-RP, purified (gel filtration), as described previously [30]

Columns and labels:
[1] = biological target: B2; assay: other fluorescence titration; blue shift of tryptophan emission (barycentric mean) with rising concentrations of equimolar ALYREF^1–155 and ORF57^8–120; buffer F (20 mM phosphate pH 6.2, 50 mM NaCl, 50 mM L-Arg+L-Glu, 5 mM EDTA, 1 mM TCEP); apparent Kd, quadratic equation or DynaFit; conditions: both partners purified
ORF57^8–120 = biological target: B1; assay: other fluorescence titration; 14merS RNA titrated into 10 µM 1:1 ALYREF^1–155 - ORF57^8–120 mixture in buffer F; three-equation equilibrium model (DynaFit); the constant of ALYREF for the ORF57-RNA complex inferred from the thermodynamic cycle; apparent; conditions: both partners purified

Binder	Kd [1] [nM]	KD of ALYREF for the ORF57-RNA (14merS) complex, inferred from the thermodynamic cycle (ORF57^8–120) [nM]
B1	2560 ± 200	
B2		520
